The values below come from patent US20210130452A1 (Merck KGaA, published 2021).

One test concerns the target T1, marmoset IL-17A (marmoset, IL-17A is a disulfide-linked homodimer. One chain is given.).
T1 chain: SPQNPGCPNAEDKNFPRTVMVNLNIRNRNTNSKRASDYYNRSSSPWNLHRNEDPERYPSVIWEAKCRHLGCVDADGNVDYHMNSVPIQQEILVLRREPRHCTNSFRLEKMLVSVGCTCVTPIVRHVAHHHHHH
Description: ELISA, coated IL-17A.

Test [1] deals with T2, human IL-17A (human, UniProt Q16552 24-155).
T2 construct: secreted form (GenBank U32659) expressed in Hek293 with C-terminal 6-His; also called hIL-17A; IL-17A-6HIS
Description: ELISA, coated IL-17A.
Description: (§1) Binding of a selected panel of anti-IL-17 Nanobodies to IL-17 of other species was assessed using a binding ELISA. […] HRP (horseradish peroxidase) conjugated anti-myc (Serotec, MCA 2200P) was used for detection using esTMB as substrate.

A further test addresses guinea pig IL-17A (guinea pig). Description: ELISA, coated IL-17A.
The next test addresses T3, mouse IL-17F (mouse, UniProt Q7TNI7 29-161).
T3 sequence (looked up): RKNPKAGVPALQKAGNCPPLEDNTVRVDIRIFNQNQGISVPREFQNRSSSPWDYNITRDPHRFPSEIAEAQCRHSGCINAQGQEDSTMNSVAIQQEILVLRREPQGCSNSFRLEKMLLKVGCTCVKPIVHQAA
Kind of test: ELISA, coated IL-17F.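 Further: binding ELISA on coated antigen from various species, with bound Nanobodies revealed by an HRP-linked anti-myc antibody and esTMB substrate.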

The target in a further test is T4, rat IL-17F (rat, UniProt Q5BJ95 29-161).
T4 sequence (looked up): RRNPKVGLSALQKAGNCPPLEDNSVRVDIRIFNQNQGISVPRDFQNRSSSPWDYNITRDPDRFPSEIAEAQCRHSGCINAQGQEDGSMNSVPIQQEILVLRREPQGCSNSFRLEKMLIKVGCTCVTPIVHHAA
Description: ELISA, coated IL-17F.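 Further: binding ELISA on coated antigen from various species, with bound Nanobodies revealed by an HRP-linked anti-myc antibody and esTMB substrate.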

Test [2] deals with T5, human IL-17A (human, UniProt Q16552 24-155, biotinylated with Sulfo-NHS-LC-Biotin in the AlphaScreen assays only). Description: cell-based or functional assay.
Test [3] concerns the target T5, human IL-17A. Kind of test: AlphaScreen competition, hIL-17A - IL-17RA-Fc.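 Further: receptor Fc-fusion plus Acceptor and streptavidin Donor beads incubated with the mixture for 1 h at room temperature before reading.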
Description: (§2) To this mixture, the IL-17RA or IL-17RC Fc-fusions, Acceptor beads and the streptavidin Donor beads were added and further incubated for 1 hour at RT.
For test [4], the target named is T5, human IL-17A. Kind of test: AlphaScreen competition, hIL-17A - IL-17RC-Fc.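 Further: Read-out after 1 h at room temperature with the receptor Fc-fusion, Acceptor beads and streptavidin-coated Donor beads present.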
Description: as §2
Test [5] addresses T5, human IL-17A. Description: SPR Biacore, hIL-17A on chip; purified protein.
For the next test, the target named is T6, human IL-17F (human, UniProt Q96PD4 31-163, biotinylated with Sulfo-NHS-LC-Biotin in the AlphaScreen assays only).
T6 construct: also called hIL-17F; recombinant human IL-17F
T6 sequence: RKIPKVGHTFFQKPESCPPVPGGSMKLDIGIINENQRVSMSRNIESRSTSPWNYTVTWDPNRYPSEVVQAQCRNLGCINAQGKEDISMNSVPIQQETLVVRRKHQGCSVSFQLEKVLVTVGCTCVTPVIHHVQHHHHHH
Description: SPR Biacore, hIL-17F on chip; periplasmic extract (*); NB = no binding.

Test [6] has as its target T7, human IL-17A/F heterodimer (human, UniProt Q16552 24-155; Q96PD4 31-163, limits assumed, biotinylated with Sulfo-NHS-LC-Biotin in the AlphaScreen assays only).
T7 construct: also called hIL-17A/F
Kind of test: AlphaScreen competition, hIL-17A/F - IL-17RC-Fc.
Description: as §2

Test [7] has as its target T7, human IL-17A/F heterodimer. Description: cell-based or functional assay.
Test [8] has as its target T7, human IL-17A/F heterodimer. Kind of test: AlphaScreen competition, hIL-17A/F - IL-17RA-Fc.
Description: as §2
The target in test [9] is T7, human IL-17A/F heterodimer. Description: SPR Biacore, hIL-17A/F on chip; purified protein.

T7 sequence (Q16552 24-155 limits assumed, chain 1 of 2, one chain of several): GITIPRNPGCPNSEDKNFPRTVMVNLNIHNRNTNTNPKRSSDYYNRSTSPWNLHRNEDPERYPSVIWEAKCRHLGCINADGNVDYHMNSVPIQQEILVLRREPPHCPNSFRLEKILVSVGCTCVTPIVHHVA
T2 sequence (Q16552 other isoform, or with tags, fused parts or gaps): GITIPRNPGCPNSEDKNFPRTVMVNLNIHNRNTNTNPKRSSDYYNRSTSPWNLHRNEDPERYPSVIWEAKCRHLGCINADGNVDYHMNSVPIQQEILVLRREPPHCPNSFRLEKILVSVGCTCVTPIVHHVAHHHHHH
T5 sequence (Q16552 other isoform, or with tags, fused parts or gaps): as above
Description for guinea pig IL-17A: as §1
Description for human IL-17F: Off-rates of the periplasmic extracts containing anti-IL-17 Nanobodies were measured by Surface Plasmon Resonance (SPR) using a Biacore T100 instrument. […] Periplasmic extracts containing IL-17 neutralizing Nanobodies were injected for 2 minutes at a flow rate of 45 μl/min to allow binding to chip-bound antigen. Next, binding buffer without periplasmic extracts was sent over the chip at the same flow rate to allow spontaneous dissociation of bound Nanobody. From the sensorgrams obtained for the different periplasmic extracts koff-values (k₄) were calculated.
Description for marmoset IL-17A: as §1
Description for mouse IL-17F: as §1
Description for rat IL-17F: as §1

B1: 07B09 (VHH)
VHH: EVQLVESGGGLVQAGGSLRLSCGASGGTFSSYATGWFRQAPGKEREFVAVLRWSDGHTAYADSVKGRFTISRDGAKNTMYLQMSSLKPEDTAIYYCTTATRPGEWDYWGQGTQVTVSS
notes: Class 3
For B1, the OD was 0.005 OD in the test with marmoset IL-17A; 0.005 OD with human IL-17A [1]; 0.009 OD with guinea pig IL-17A; -0.0015 OD with mouse IL-17F; 0.0025 OD with rat IL-17F.

B2: 08H01 (VHH)
VHH: EVQLVESGGGLVQAGGSLRLSCGASGGTFSSYATGWFRQAPGKEREFVAVLRWSDSHTAYADSVEGRFTISRDGAKNTVYLQMSSLKPEDTAIYYCTTGTRPGEWHYWGQGTQVTVSS
notes: Class 3
On to B2, for which the OD is 0.007 OD in the test with guinea pig IL-17A, -0.0005 OD with mouse IL-17F and 0.0045 OD with rat IL-17F.

B3: 24G10 (VHH)
VHH: EVQLVESGGGLVQAGGSLRLSCGAAGGTFSSYATGWFRQAPGKEREFVAVFRWSDSHTAYADSVKGRFTISRDGAKNTLYLQMSSLKPEDTAIYYCTTATRPGEWDYWGQGTQVTVSS
notes: Class 3
With B3, the OD with human IL-17A [1] is 0.009 OD; with guinea pig IL-17A, 0.008 OD; with mouse IL-17F it was -0.0005 OD; with rat IL-17F it was 0.0025 OD.

B4: 01A01 (VHH)
VHH: EVQLVESGGGLVQAGGSLRLSCAASGFTFDDYDIGWFRQAPGKEREGVSCFTSSDGRTFYADSVKGRFTVSADNAKNTVYLQMNSLEPEDTAVYFCAAVNTFDESAYAAFACYDVVRWGQGTQVTVSS
notes: Class 4 Nanobody (cross-reactive: anti-IL-17A, IL-17F and IL-17A/F); not shown: c-myc, His6 tag
In the case of B4, in the test with human IL-17A [2], the “IL-17A-induced IL-6 production in HT-1080 cells, Emax” value (“IL-17A-induced IL-6 production … Emax” for short) worked out at 104% and the “IL-17A-induced IL-6 production in HT-1080 cells, IC50” value (from here on “IL-17A-induced IL-6 production … IC50”) turned out to be 2.7 nM. In the test with human IL-17A [3], this molecule yielded an IC50 of 0.051 nM. The molecule further returned an IC50 in the test with human IL-17A [4] of 0.211 nM. The koff with human IL-17A [5] came out at 8.5e-05 s⁻¹.

B5: 06E11 (VHH)
VHH: EVQLVESGGGLVQAGGSLRLSCPVSGRAFSRGRLGWFRQAPGKEREFVAVAHWSGAITSYADSVKGRFTFSRDNAKNTMNLQMNSLKPEDTAVYYCAADSETSGNWVYWGQGTQVTVSS
notes: Class 3
With B5, the figures for the OD with guinea pig IL-17A, with mouse IL-17F and with rat IL-17F were 0.006 OD, 0.0215 OD and 0.0085 OD, respectively.

B6: 04B09 (VHH)
VHH: EVQLVESGGGLVQPGGSLRLSCAASGFTLGYYAIGWFRQAPGKEREGVSCDSSSDGDTYYANSVKGRFTISTDNGKNTVYLQMNSLKPEDTAVYYCATCTDWNYDYWGQGTQVTVSS
notes: Class 2 Nanobody (anti-IL-17A and IL-17A/F); not shown: c-myc, His6 tag
In the case of B6, the binding result with human IL-17F is “no binding”.

B7: 11A06 (VHH)
VHH: EVQLVESGGGLVQPGESLRLSCKASGFSLDYYALGWFRQAPGKEREGISCITSSDASAYYTDSVKGRFTISRDNSKNTVYLQMNSLKTEDTAIYYCAAALLTCSSYYDAYTYWGQGTQVTVSS
notes: as for B6
For the molecule B7, the IC50 came out at 0.039 nM in test [6], 0.081 nM in the test with human IL-17A [3], 0.461 nM with human IL-17A [4] and 0.14 nM in test [8]. Moreover, the “IL-17A/F-induced IL-6 production in HT-1080 cells, Emax” value in test [7] amounted to 106%. Also, in test [7], the “IL-17A/F-induced IL-6 production in HT-1080 cells, IC50” value came out at 28.1 nM. Also, the “IL-17A-induced IL-6 production … Emax” value in the test with human IL-17A [2] amounted to 98.5%. Further, the “IL-17A-induced IL-6 production … IC50” value with human IL-17A [2] is 4 nM. The koff with human IL-17A [5] was 0.00016 s⁻¹; in [9], 3.8e-05 s⁻¹.

B8: 13E05 (VHH)
VHH: EVQLVESGGGKVQAGDSLTLSCVASGGTFSNYAAWFRQAPGKDRRELVVSIFRTGSITYTADSVKGRFTASRVNTKNTVYLQMNSLKPEDTAVYYCASAYNPGVGYDYWGQGTQVTVSS
notes: as for B4
B8: in the test with human IL-17A [2], the “IL-17A-induced IL-6 production … Emax” value stood at 101% and the “IL-17A-induced IL-6 production … IC50” value is 12.3 nM. Also, the half-inhibitory concentration (IC50) with human IL-17A [3] was found to be 0.159 nM. The molecule also displayed an IC50 with human IL-17A [4] of 1.09 nM. For the same molecule, the koff with human IL-17A [5] came out at 0.0016 s⁻¹.

B9: 03C07 (VHH)
VHH: EVQLVESGGGLVQAGGSLRLSCAASGFTFDDYAIGWFRQAPGKEREAVSCFSSSDGSIYYADSVKGRFTISSDNAKNTVYLQMNSLKPEDTAVYYCAGGGGSYYYTQLNYCYDMDYWGKGTQVTVSS
notes: as for B6
With B9, in the test with human IL-17A [2], the “IL-17A-induced IL-6 production … Emax” value came out at 101% and the “IL-17A-induced IL-6 production … IC50” value came to 4.2 nM. Further, the IC50 with human IL-17A [3] was found to be 0.084 nM. Besides, the half-inhibitory concentration (IC50) with human IL-17A [4] worked out at 0.371 nM. Further, in the test with human IL-17A [5], the koff turned out to be 0.0002 s⁻¹.

B10: 02A08 (VHH)
VHH: EVQLVESGGGVVQPGGSLRLSCADSERSFSFNAMGWFRQAPGKEREFVAAISATGDDTYYADSVKGRFAISRDTARNTVYLQMNSLKPEDTAVYYCGARVNFDGTVSYTNDYAYWGQGTQVTVSS
notes: as for B6
Regarding B10, in the test with human IL-17A [2], the “IL-17A-induced IL-6 production … Emax” value amounted to 103% and the “IL-17A-induced IL-6 production … IC50” value is 8.8 nM. For the same molecule, the 50% inhibitory concentration (IC50) with human IL-17A [3] was 0.126 nM. In the test with human IL-17A [4], this molecule registered an IC50 of 0.419 nM. The koff with human IL-17A [5] was 0.00042 s⁻¹.

B11: 13B05 (VHH)
VHH: EVQLVESGGRLVQAGGSLRLSCAASGRTFTSYPMGWFRQAPGKEREFVAAISMSGDDTAYTDFVRGRFTISRDDARNTVYLHMTSLKPEDTAVYYCAARTSYDGTYDYIDDYSYWGQGTQVTVSS
notes: as for B4
On to B11, for which, in the test with human IL-17A [2], the “IL-17A-induced IL-6 production … Emax” value stood at 104% and the “IL-17A-induced IL-6 production … IC50” value turned out to be 14 nM. The molecule further had an IC50 in the test with human IL-17A [3] of 0.118 nM. Moreover, in the test with human IL-17A [4], the IC50 is 0.249 nM. Moreover, the koff with human IL-17A [5] was determined as 0.0003 s⁻¹.

B12: 07B11 (VHH)
VHH: EVQLVESGGGLVQAGGSLRLSCVASGRAFSSYVMGWFRQAPGMEREFVALIRWSDGITGYVDSVKGRFTISRDNAKNTVYLQMNSLKPEDTAVYYCAAAVRPGDYDYWGQGTQVTVSS
notes: Class 3
With B12, the OD is 0.03 OD with human IL-17A [1], 0.007 OD with guinea pig IL-17A, -0.0005 OD with mouse IL-17F and -0.0105 OD in the test with rat IL-17F.

B13: 24B08 (VHH)
VHH: EVQLVESGGGLVQAGGSLRLSCAVSGGTFSTYKMGWFRQAPGKEREIVARISTNGPTAYAEFVKGRFTVSRENTKNTVYLQMNSLNIEDTAVYYCAAGYDSLFAGYDYWGQGTQVTVSS
notes: Class 3
For B13, the OD in the test with marmoset IL-17A is 0.129 OD; with human IL-17A [1], 0.103 OD; with guinea pig IL-17A it was 0.012 OD; in the test with mouse IL-17F, -0.0015 OD; with rat IL-17F, 0.0035 OD.

B14: 11C08 (VHH)
VHH: EVQLVESGGGLVQAGGSLRLSCAASGVIFRLNAMGWYRAAPGKQRELVAIIVNGGSTNYADSVKGRFTISRDSAKNAVYLQMNSLKPEDTAVYYCYYNIPGDVYWGQGTQVTVSS
notes: as for B4
As to B14, in the test with human IL-17A [2], the “IL-17A-induced IL-6 production … Emax” value amounted to 73% and the “IL-17A-induced IL-6 production … IC50” value came to 130 nM. Further, the half-maximal inhibitory concentration (IC50) with human IL-17A [3] worked out at 2.12 nM. The same molecule returned an IC50 in the test with human IL-17A [4] of 4.8 nM. In addition, the koff in the test with human IL-17A [5] was found to be 0.0079 s⁻¹.
